This is an account of results in US20110117658A1 (published 2011).

Bridges are numbered along the chain shown (N, C = ends). Where no end group is shown, it is not given here. [ ]: non-standard residue; d: D form. Gla = N[C@@H](CC(C(=O)O)C(=O)O)C(=O)O

Data set [1] deals with the molecule itself. Put plainly: sedimentation equilibrium, monomer-dimer equilibrium model, in the absence of calcium; extrapolated dimer dissociation constant. An excerpt:
(§1) The hydroxyapatite lattice binding mode represented by the best solution presupposes that osteocalcin engages hydroxyapatite with the acidic Ca²⁺-coordinating surface as a monomer. In the crystal structure of porcine osteocalcin, however, the five Ca²⁺ ions are sandwiched between two crystallographically related protein molecules. If overly stable, this dimeric state could present an impediment to hydroxyapatite binding. To investigate whether porcine osteocalcin exists as a monomer or dimer in solution, sedimentation equilibrium analysis in the presence and absence of 10 mM CaCl₂ was carried out. In both cases, the sedimentation equilibrium data were best fitted to a monomer-dimer equilibrium model (FIG. 6). […] Theses Kd values are 2-3 orders of magnitude higher than the concentration of osteocalcin in human serum […],³¹ showing that osteocalcin exists as a monomer in vivo.

Data set [2] concerns the molecule itself. The data set can be described thus: sedimentation equilibrium, monomer-dimer equilibrium model, in the presence of 10 mM CaCl2; extrapolated dimer dissociation constant.
Description: as §1

B1: porcine osteocalcin (other)
chain: YLDHGLGAPAPYPDPL[Gla]PRR[Gla]VC[Gla]LNPDCDELADHIGFQEAYRRFYGIA
modifications: disulfide 23-29; not fully specified
notes: the entries describe its self-association into a dimer; In the crystal only residues 13-49 are ordered (residues 1 to 12 missing from the model); also called pOC; POC13-49 (part seen in the crystal structure)
Turning to B1, the Kd – broadly, the concentration at which binding is half-saturated – in data set [1] is 800 µM; in data set [2], 200 µM.
